The text below walks through data of US20240360227A1.

Test [1] addresses Recombinant human his-tagged IGF R extracellular domain protein (human) (UniProt P08069). In words: SPR, Ab captured via anti-huIgG Fc, pH 7.4.
For test [2] the target is unchanged. Briefly: SPR, Ab captured via anti-huIgG Fc, dissociation at pH 6.

B1: VRDN-02100 (antibody, human IgG1, kappa, V domains shown)
VH: QVQLQESGPGLVKPSETLSLTCTVSGYSITGGYLWNWIRQPPGKGLEWIGYISYDGTNNYKPSLKDRVTISRDTSKNQFSLKLSSVTAADTAVYYCARYGRVFFDYWGQGTLVTVSS
VL: DIVMTQSPLSLPVTPGEPASISCRSSQSIVHSNGNTYLQWYLQKPGQSPQLLIYKVSNRLYGVPDRFSGSGSGTDFTLKISRVEAEDVGVYYCFQGSHVPWTFGQGTKVEIKR
With B1, in test [1], the Kd was 0.456 nM, the koff worked out at 4.85e-05 s⁻¹ and the kon came to 106000 M⁻¹ s⁻¹. Also, in test [2], the Kd turned out to be 1.05 nM, the dissociation rate constant (koff) is 9.16e-05 s⁻¹ and the kon came to 86800 M⁻¹ s⁻¹.

B2: VRDN-02016 (antibody, V domains shown)
VH: QVQLQESGPGLVKPSETLSLTCTVSGYSITGGYLWNWIRQPPGKGLEWIGYISYHGTNNYKPSLKDRVTISRDTSKNQFSLKLSSVTAADTAVYYCARYGRVFFDYWGQGTLVTVSS
VL: DIVMTQSPLSLPVTPGEPASISCRSSQSIVHSNGNTYLQWYLQKPGQSPQLLIYKVSNRLYGVPDRFSGSGSGTDFTLKISRVEAEDVGVYYCFQGSHVPWTFGQGTKVEIK
As to B2, in test [1], the dissociation constant Kd stood at 0.346 nM, the koff amounted to 3.39e-05 s⁻¹ and the kon is 98000 M⁻¹ s⁻¹. Moreover, in test [2], the Kd came to 1.31 nM, the koff was 0.000111 s⁻¹ and the kon worked out at 84300 M⁻¹ s⁻¹.

B3: VRDN-02017 (antibody, V domains shown)
VH: QVQLQESGPGLVKPSETLSLTCTVSGYSITGGYLWNWIRQPPGKGLEWIGYISYDHTNNYKPSLKDRVTISRDTSKNQFSLKLSSVTAADTAVYYCARYGRVFFDYWGQGTLVTVSS
VL: DIVMTQSPLSLPVTPGEPASISCRSSQSIVHSNGNTYLQWYLQKPGQSPQLLIYKVSNRLYGVPDRFSGSGSGTDFTLKISRVEAEDVGVYYCFQGSHVPWTFGQGTKVEIK
In the case of B3, in test [1], the Kd came to 1.22 nM, the koff worked out at 0.000118 s⁻¹ and the association rate constant (kon) worked out at 97000 M⁻¹ s⁻¹. Also, in test [2], the dissociation constant Kd came out at 1.14 nM, the off-rate constant (koff) was determined as 0.00011 s⁻¹ and the kon is 96000 M⁻¹ s⁻¹.

B4: VRDN-02020 (antibody, V domains shown)
VH: QVQLQESGPGLVKPSETLSLTCTVSGYSITGGYLWNWIRQPPGKGLEWIGYISYDGTNHYKPSLKDRVTISRDTSKNQFSLKLSSVTAADTAVYYCARYGRVFFDYWGQGTLVTVSS
VL: DIVMTQSPLSLPVTPGEPASISCRSSQSIVHSNGNTYLQWYLQKPGQSPQLLIYKVSNRLYGVPDRFSGSGSGTDFTLKISRVEAEDVGVYYCFQGSHVPWTFGQGTKVEIK
As to B4, in test [1], the Kd stood at 0.544 nM, the dissociation rate constant (koff) was 5.16e-05 s⁻¹ and the kon was 94800 M⁻¹ s⁻¹. In addition, in test [2], the Kd is 1.03 nM, the off-rate (koff) is 9.56e-05 s⁻¹ and the kon was determined as 93200 M⁻¹ s⁻¹.

B5: VRDN-02025 (antibody, V domains shown)
VH: QVQLQESGPGLVKPSETLSLTCTVSGYSITGGYLWNWIRQPPGKGLEWIGYISYDGTNNYKPSLKDRVTISRDTSKNQFSLKLSSVTAADTAVYYCARYGRVHFDYWGQGTLVTVSS
VL: DIVMTQSPLSLPVTPGEPASISCRSSQSIVHSNGNTYLQWYLQKPGQSPQLLIYKVSNRLYGVPDRFSGSGSGTDFTLKISRVEAEDVGVYYCFQGSHVPWTFGQGTKVEIK
On to B5, for which, in test [1], the Kd is 2.08 nM, the koff was 0.000141 s⁻¹ and the kon was found to be 68000 M⁻¹ s⁻¹. Further, in test [2], the Kd stood at 1.51 nM, the koff came to 9.5e-05 s⁻¹ and the kon is 63000 M⁻¹ s⁻¹.

B6: VRDN-02018 (antibody, V domains shown)
VH: QVQLQESGPGLVKPSETLSLTCTVSGYSITGGYLWNWIRQPPGKGLEWIGYISYDGHNNYKPSLKDRVTISRDTSKNQFSLKLSSVTAADTAVYYCARYGRVFFDYWGQGTLVTVSS
VL: DIVMTQSPLSLPVTPGEPASISCRSSQSIVHSNGNTYLQWYLQKPGQSPQLLIYKVSNRLYGVPDRFSGSGSGTDFTLKISRVEAEDVGVYYCFQGSHVPWTFGQGTKVEIK
For the molecule B6, in test [1], the Kd was determined as 0.734 nM, the koff is 7.79e-05 s⁻¹ and the kon was determined as 106000 M⁻¹ s⁻¹. Moreover, in test [2], the dissociation constant Kd turned out to be 1.26 nM, the koff was 0.000108 s⁻¹ and the kon was determined as 85400 M⁻¹ s⁻¹.

B7: VRDN-02024 (antibody, V domains shown)
VH: QVQLQESGPGLVKPSETLSLTCTVSGYSITGGYLWNWIRQPPGKGLEWIGYISYDGTNNYKPSLKDRVTISRDTSKNQFSLKLSSVTAADTAVYYCARYGRHFFDYWGQGTLVTVSS
VL: DIVMTQSPLSLPVTPGEPASISCRSSQSIVHSNGNTYLQWYLQKPGQSPQLLIYKVSNRLYGVPDRFSGSGSGTDFTLKISRVEAEDVGVYYCFQGSHVPWTFGQGTKVEIK
Take B7: in test [1], the Kd is 0.449 nM, the koff was found to be 5.06e-05 s⁻¹ and the kon stood at 113000 M⁻¹ s⁻¹. Besides, in test [2], the Kd is 0.793 nM, the koff is 7.99e-05 s⁻¹ and the kon is 101000 M⁻¹ s⁻¹.

B8: VRDN-02002 (antibody, V domains shown)
VH: QVQLQESGPGLVKPSETLSLTCTVSGHSITGGYLWNWIRQPPGKGLEWIGYISYDGTNNYKPSLKDRVTISRDTSKNQFSLKLSSVTAADTAVYYCARYGRVFFDYWGQGTLVTVSS
VL: DIVMTQSPLSLPVTPGEPASISCRSSQSIVHSNGNTYLQWYLQKPGQSPQLLIYKVSNRLYGVPDRFSGSGSGTDFTLKISRVEAEDVGVYYCFQGSHVPWTFGQGTKVEIK
For B8, in test [1], the Kd stood at 0.992 nM, the koff came out at 0.000104 s⁻¹ and the kon is 105000 M⁻¹ s⁻¹. Moreover, in test [2], the Kd turned out to be 1.11 nM, the koff came to 9.22e-05 s⁻¹ and the on-rate constant (kon) is 83000 M⁻¹ s⁻¹.

B9: VRDN-02022 (antibody, V domains shown)
VH: QVQLQESGPGLVKPSETLSLTCTVSGYSITGGYLWNWIRQPPGKGLEWIGYISYDGTNNYKPSLKDRVTISRDTSKNQFSLKLSSVTAADTAVYYCARYHRVFFDYWGQGTLVTVSS
VL: DIVMTQSPLSLPVTPGEPASISCRSSQSIVHSNGNTYLQWYLQKPGQSPQLLIYKVSNRLYGVPDRFSGSGSGTDFTLKISRVEAEDVGVYYCFQGSHVPWTFGQGTKVEIK
B9: in test [1], the Kd was 8.23 nM, the koff came to 0.000775 s⁻¹ and the kon worked out at 94100 M⁻¹ s⁻¹.

B10: VRDN-02023 (antibody, V domains shown)
VH: QVQLQESGPGLVKPSETLSLTCTVSGYSITGGYLWNWIRQPPGKGLEWIGYISYDGTNNYKPSLKDRVTISRDTSKNQFSLKLSSVTAADTAVYYCARYGHVFFDYWGQGTLVTVSS
VL: DIVMTQSPLSLPVTPGEPASISCRSSQSIVHSNGNTYLQWYLQKPGQSPQLLIYKVSNRLYGVPDRFSGSGSGTDFTLKISRVEAEDVGVYYCFQGSHVPWTFGQGTKVEIK
Take B10: in test [1], the Kd came to 4.4 nM, the koff was 0.00187 s⁻¹ and the kon is 426000 M⁻¹ s⁻¹. For the same molecule, in test [2], the Kd was 1.23 nM, the koff is 8.97e-05 s⁻¹ and the on-rate constant (kon) was 72700 M⁻¹ s⁻¹.

B11: VRDN-02059 (antibody, V domains shown)
VH: QVQLQESGPGLVKPSETLSLTCTVSGYSITGGYLWNWIRQPPGKGLEWIGYIHYDGTNNYKPSLKDRVTISRDTSKNQFSLKLSSVTAADTAVYYCARYGRVFFDYWGQGTLVTVSS
VL: DIVMTQSPLSLPVTPGEPASISCRSHQSIVHSNGNTYLQWYLQKPGQSPQLLIYKVSNRLYGVPDRFSGSGSGTDFTLKISRVEAEDVGVYYCFQGSHVPWTFGQGTKVEIK
In the case of B11, in test [2], the equilibrium dissociation constant (Kd) was determined as 0.228 nM, the koff is 4.43e-05 s⁻¹ and the kon was 194000 M⁻¹ s⁻¹.

B12: VRDN-02019 (antibody, V domains shown)
VH: QVQLQESGPGLVKPSETLSLTCTVSGYSITGGYLWNWIRQPPGKGLEWIGYISYDGTHNYKPSLKDRVTISRDTSKNQFSLKLSSVTAADTAVYYCARYGRVFFDYWGQGTLVTVSS
VL: DIVMTQSPLSLPVTPGEPASISCRSSQSIVHSNGNTYLQWYLQKPGQSPQLLIYKVSNRLYGVPDRFSGSGSGTDFTLKISRVEAEDVGVYYCFQGSHVPWTFGQGTKVEIK
As to B12, in test [1], the Kd was determined as 0.549 nM, the koff is 5.53e-05 s⁻¹ and the on-rate (kon) was found to be 101000 M⁻¹ s⁻¹. For the same molecule, in test [2], the Kd is 1.18 nM, the koff came out at 0.000101 s⁻¹ and the kon came to 85800 M⁻¹ s⁻¹.

B13: VRDN-02001 (antibody, V domains shown)
VH: QVQLQESGPGLVKPSETLSLTCTVSHYSITGGYLWNWIRQPPGKGLEWIGYISYDGTNNYKPSLKDRVTISRDTSKNQFSLKLSSVTAADTAVYYCARYGRVFFDYWGQGTLVTVSS
VL: DIVMTQSPLSLPVTPGEPASISCRSSQSIVHSNGNTYLQWYLQKPGQSPQLLIYKVSNRLYGVPDRFSGSGSGTDFTLKISRVEAEDVGVYYCFQGSHVPWTFGQGTKVEIK
Regarding B13, in test [1], the Kd worked out at 0.495 nM, the koff stood at 5.1e-05 s⁻¹ and the kon worked out at 103000 M⁻¹ s⁻¹. In addition, in test [2], the Kd came out at 1.2 nM, the koff amounted to 0.000115 s⁻¹ and the kon was determined as 96000 M⁻¹ s⁻¹.

B14: VRDN-02026 (antibody, V domains shown)
VH: QVQLQESGPGLVKPSETLSLTCTVSGYSITGGYLWNWIRQPPGKGLEWIGYISYDGTNNYKPSLKDRVTISRDTSKNQFSLKLSSVTAADTAVYYCARYGRVFHDYWGQGTLVTVSS
VL: DIVMTQSPLSLPVTPGEPASISCRSSQSIVHSNGNTYLQWYLQKPGQSPQLLIYKVSNRLYGVPDRFSGSGSGTDFTLKISRVEAEDVGVYYCFQGSHVPWTFGQGTKVEIK
Consider B14, for which, in test [1], the Kd came out at 2.4 nM, the koff is 9.99e-05 s⁻¹ and the kon was 41500 M⁻¹ s⁻¹. Further, in test [2], the Kd amounted to 1.64 nM, the koff is 6.71e-05 s⁻¹ and the kon turned out to be 40800 M⁻¹ s⁻¹.

B15: VRDN-02021 (antibody, V domains shown)
VH: QVQLQESGPGLVKPSETLSLTCTVSGYSITGGYLWNWIRQPPGKGLEWIGYISYDGTNNYKPSLKDRVTISRDTSKNQFSLKLSSVTAADTAVYYCARHGRVFFDYWGQGTLVTVSS
VL: DIVMTQSPLSLPVTPGEPASISCRSSQSIVHSNGNTYLQWYLQKPGQSPQLLIYKVSNRLYGVPDRFSGSGSGTDFTLKISRVEAEDVGVYYCFQGSHVPWTFGQGTKVEIK
B15: in test [1], the Kd stood at 0.868 nM, the koff amounted to 5.84e-05 s⁻¹ and the kon amounted to 67300 M⁻¹ s⁻¹. Moreover, in test [2], the Kd was determined as 1.38 nM, the dissociation rate constant (koff) was found to be 0.000137 s⁻¹ and the kon stood at 99200 M⁻¹ s⁻¹.
